Measurements from paper PMC11098746 (2024).

B1: ADP096 (protein)
chain: GIQYQTRSPSVCLSEACVSVTSSILSSMDPTVDPCHDFFSYACGGWIKANPVPDGHSRWGTFSNLWEHNQAIIKHLLENSTASVSEAERKAQVYYRACMNETRIEELRAKPLMELIERLGGWNITGPWAKDNFQDTLQVVTAHYRTSPFFSVYVSADSKNSNSNVIQVDQSGLGLPSRDYYLNKTENEKVLTGYLNYMVQLGKLLGGGDEEAIRPQMQQILDFETALANITIPQEKRRDEELIYHKVTAAELQTLAPAINWLPFLNTIFYPVEINESEPIVVYDKEYLEQISTLINTTDRCLLNNYMIWNLVRKTSSFLDQRFQDADEKFMEVMYGTKKTCLPRWKFCVSDTENNLGFALGPMFVKATFAEDSKSIATEIILEIKKAFEESLSTLKWMDEETRKSAKEKADAIYNMIGYPNFIMDPKELDKVFNDYTAVPDLYFENAMRFFNFSWRVTADQLRKAPNRDQWSMTPPMVNAYYSPTKNEIVFPAGILQAPFYTRSSPKALNFGGIGVVVGHELTHAFDDQGREYDKDGNLRPWWKNSSVEAFKRQTECMVEQYSNYSVNGEPVNGRHTLGENIADNGGLKAAYRAYQNWVKKNGAEHSLPTLGLTNNQLFFLGFAQVWCSVRTPESSHEGLITDPHSPSRFRVIGSLSNSKEFSEHFRCPPGSPMNPPHKCEVW
modifications: bait human Fc-tagged dimer
B2: ADP383 (protein)
chain: GLKPSCAKEVKSCKGRCFERTFGNCRCDAACVELGNCCLDYQETCIEPEHIWTCNKFRCGEKRLTRSLCACSDDCKDKGDCCINYSSVCQGEKSWVEEPCESINEPQCPAGFETPPTLLFSLDGFRAEYLHTWGGLLPVISKLKKCGTYTKNMRPVYPTKTFPNHYSIVTGLYPESHGIIDNKMYDPKMNASFSLKSKEKFNPEWYKGEPIWVTAKYQGLKSGTFFWPGSDVEINGIFPDIYKMYNGSVPFEERILAVLQWLQLPKDERPHFYTLYLEEPDSSGHSYGPVSSEVIKALQRVDGMVGMLMDGLKELNLHRCLNLILISDHGMEQGSCKKYIYLNKYLGDVKNIKVIYGPAARLRPSDVPDKYYSFNYEGIARNLSCREPNQHFKPYLKHFLPKRLHFAKSDRIEPLTFYLDPQWQLALNPSERKYCGSGFHGSDNVFSNMQALFVGYGPGFKHGIEADTFENIEVYNLMCDLLNLTPAPNNGTHGSLNHLLKNPVYTPKHPKEVHPLVQCPFTRNPRDNLGCSCNPSILPIEDFQTQFNLTVAEEKIIKHETLPYGRPRVLQKENTICLLSQHQFMSGYSQDILMPLWTSYTVDRNDSFSTEDFSNCLYQDFRIPLSPVHKCSFYKNNTKVSYGFLSPPQLNKNSSGIYSEALLTTNIVPMYQSFQVIWRYFHDTLLRKYAEERNGVNVVSGPVFDFDYDGRCDSLENLRQKRRVIRNQEILIPTHFFIVLTSCKDTSQTPLHCENLDTLAFILPHRTDNSESCVHGKHDSSWVEELLMLHRARITDVEHITGLSFYQQRKEPVSDILKLKTHLPTFSQED
modifications: bait human Fc-tagged dimer
B3: ADP332 (protein)
chain: MAPPGRRECPFPSWRFPGLLLAAMVLLLYSFSDACEEPPTFEAMELIGKPKPYYEIGERVDYKCKKGYFYIPPLATHTICDRNHTWLPVSDDACYRETCPYIRDPLNGQAVPANGTYEFGYQMHFICNEGYYLIGEEILYCELKGSVAIWSGKPPICEKVLCTPPPKIKNGKHTFSEVEVFEYLDAVTYSCDPAPGPDPFSLIGESTIYCGDNSVWSRAAPECKVVKCRFPVVENGKQISGFGKKFYYKATVMFECDKGFYLDGSDTIVCDSNSTWDPPVPKCLKVLPPSSTKPPALSHSVSTSSTTKSPASSASGPRPTYKPPVSNYPGYPKPEEGILDSLDV
modifications: bait human Fc-tagged dimer
B4: ADP269 (protein)
chain: SRHQAPCGPQAFAHAAVAADSKVCSDIGRAILQQQGSPVDATIAALVCTSVVNPQSMGLGGGVIFTIYNVTTGKVEVINARETVPASHAPSLLDQCAQALPLGTGAQWIGVPGELRGYAEAHRRHGRLPWAQLFQPTIALLRGGHVVAPVLSRFLHNSILRPSLQASTLRQLFFNGTEPLRPQDPLPWPALATTLETVATEGVEVFYTGRLGQMLVEDIAKEGSQLTLQDLAKFQPEVVDALEVPLGDYTLYSPPPPAGGAILSFILNVLRGFNFSTESMARPEGRVNVYHHLVETLKFAKGQRWRLGDPRSHPKLQNASRDLLGETLAQLIRQQIDGRGDHQLSHYSLAEAWGHGTGTSHVSVLGEDGSAVAATSTINTPFGAMVYSPRTGIILNNELLDLCERCPRGSGTTPSPAVSGDRVGGAPGRCWPPVPGERSPSSMVPSILINKAQGSKLVIGGAGGELIISAVAQAIMSKLWLGFDLRAAIAAPILHVNSKGCVEYEPNFSQEVQRGLQDRGQNQTQRPFFLNVVQAVSQEGACVYAVSDLRKSGEAAGY
modifications: bait human Fc-tagged dimer
B5: ADP368 (protein)
chain: MERASCLLLLLLPLVHVSATTPEPCELDDEDFRCVCNFSEPQPDWSEAFQCVSAVEVEIHAGGLNLEPFLKRVDADADPRQYADTVKALRVRRLTVGAAQVPAQLLVGALRVLAYSRLKELTLEDLKITGTMPPLPLEATGLALSSLRLRNVSWATGRSWLAELQQWLKPGLKVLSIAQAHSPAFSCEQVRAFPALTSLDLSDNPGLGERGLMAALCPHKFPAIQNLALRNTGMETPTGVCAALAAAGVQPHSLDLSHNSLRATVNPSAPRCMWSSALNSLNLSFAGLEQVPKGLPAKLRVLDLSCNRLNRAPQPDELPEVDNLTLDGNPFLVPGTALPHEGSMN
modifications: bait human Fc-tagged dimer
B6: ADP359 (protein)
chain: MAAEWASRFWLWATLLIPAAAVYEDQVGKFDWRQQYVGKVKFASLEFSPGSKKLVVATEKNVIAALNSRTGEILWRHVDKGTAEGAVDAMLLHGQDVITVSNGGRIMRSWETNIGGLNWEITLDSGSFQALGLVGLQESVRYIAVLKKTTLALHHLSSGHLKWVEHLPESDSIHYQMVYSYGSGVVWALGVVPFSHVNIVKFNVEDGEIVQQVRVSTPWLQHLSGACGVVDEAVLVCPDPSSRSLQTLALETEWELRQIPLQSLDLEFGSGFQPRVLPTQPNPVDASRAQFFLHLSPSHYALLQYHYGTLSLLKNFPQTALVSFATTGEKTVAAVMACRNEVQKSSSSEDGSMGSFSEKSSSKDSLACFNQTYTINLYLVETGRRLLDTTITFSLEQSGTRPERLYIQVFLKKDDSVGYRALVQTEDHLLLFLQQLAGKVVLWSREESLAEVVCLEMVDLPLTGAQAELEGEFGKKADGLLGMFLKRLSSQLILLQAWTSHLWKMFYDARKPRSQIKNEINIDTLARDEFNLQKMMVMVTASGKLFGIESSSGTILWKQYLPNVKPDSSFKLMVQRTTAHFPHPPQCTLLVKDKESGMSSLYVFNPIFGKWSQVAPPVLKRPILQSLLLPVMDQDYAKVLLLIDDEYKVTAFPATRNVLRQLHELAPSIFFYLVDAEQGRLCGYRLRKDLTTELSWELTIPPEVQRIVKVKGKRSSEHVHSQGRVMGDRSVLYKSLNPNLLAVVTESTDAHHERTFIGIFLIDGVTGRIIHSSVQKKAKGPVHIVHSENWVVYQYWNTKARRNEFTVLELYEGTEQYNATAFSSLDRPQLPQVLQQSYIFPSSISAMEATITERGITSRHLLIGLPSGAILSLPKALLDPRRPEIPTEQSREENLIPYSPDVQIHAERFINYNQTVSRMRGIYTAPSGLESTCLVVAYGLDIYQTRVYPS
modifications: bait human Fc-tagged dimer
B7: ADP316 (protein)
chain: MAAAGAAVARSPGIGAGPALRARRSPPPRAARLPRLLVLLAAAAVGPGAGGAARLYRAGEDAVWVLDSGSVRGATANSSAAWLVQFYSSWCGHCIGYAPTWRALAGDVRDWASAIRVAALDCMEEKNQAVCHDYDIHFYPTFRYFKAFTKEFTTGENFKGPDRELRTVRQTMIDFLQNHTEGSRPPACPRLDPIQPSDVLSLLDNRGSHYVAIVFESNSSYLGREVILDLIPYESIVVTRALDGDKAFLEKLGVSSVPSCYLIYPNGSHGLINVVKPLRAFFSSYLKSLPDVRKKSLPLPEKPHKEENSEIVVWREFDKSKLYTVDLESGLHYLLRVELAAHKSLAGAELKTLKDFVTVLAKLFPGRPPVKKLLEMLQEWLASLPLDRIPYNAVLDLVNNKMRISGIFLTNHIKWVGCQGSRSELRGYPCSLWKLFHTLTVEASTHPDALVGTGFEDDPQAVLQTMRRYVHTFFGCKECGEHFEEMAKESMDSVKTPDQAILWLWKKHNMVNGRLAGHLSEDPRFPKLQWPTPDLCPACHEEIKGLASWDEGHVLTFLKQHYGRDNLLDTYSADQGDSSEGGTLARGEEEEKRLTPPEVSHGDRDTQSVRPPGALGPRPALPESLHHSLDGKLQSLDGPGAHKEVGGAAPFLGVDFSSLDM
modifications: bait human Fc-tagged dimer
B8: ADP333 (protein)
chain: MASVVLPSGSQCAAAAAAAAPPGLRLRLLLLLFSAAALIPTGDGQNLFTKDVTVIEGEVATISCQVNKSDDSVIQLLNPNRQTIYFRDFRPLKDSRFQLLNFSSSELKVSLTNVSISDEGRYFCQLYTDPPQESYTTITVLVPPRNLMIDIQKDTAVEGEEIEVNCTAMASKPATTIRWFKGNTELKGKSEVEEWSDMYTVTSQLMLKVHKEDDGVPVICQVEHPAVTGNLQTQRYLEVQYKPQVHIQMTYPLQGLTREGDALELTCEAIGKPQPVMVTWVRVDDEMPQHAVLSGPNLFINNLNKTDNGTYRCEASNIVGKAHSDYMLYVYDPPTTIPPPTT
modifications: bait human Fc-tagged dimer
B9: ADP121 (protein)
chain: MGTLLLVLWLATRGSALYFHIGETEKKCFIEEIPDETMVIGNYRTQLYDKQREEYQPATPGLGMFVEVKDPEDKVILARQYGSEGRFTFTSHTPGEHQICLHSNSTKFSLFAGGMLRVHLDIQVGEHANDYAEIAAKDKLSELQLRVRQLVEQVEQIQKEQNYQRWREERFRQTSESTNQR
modifications: bait human Fc-tagged dimer

Molecular target: Circumsporozoite protein (CSP) (Plasmodium falciparum (isolate 3D7), UniProt Q7K740)
Sequence (Q7K740 19-374): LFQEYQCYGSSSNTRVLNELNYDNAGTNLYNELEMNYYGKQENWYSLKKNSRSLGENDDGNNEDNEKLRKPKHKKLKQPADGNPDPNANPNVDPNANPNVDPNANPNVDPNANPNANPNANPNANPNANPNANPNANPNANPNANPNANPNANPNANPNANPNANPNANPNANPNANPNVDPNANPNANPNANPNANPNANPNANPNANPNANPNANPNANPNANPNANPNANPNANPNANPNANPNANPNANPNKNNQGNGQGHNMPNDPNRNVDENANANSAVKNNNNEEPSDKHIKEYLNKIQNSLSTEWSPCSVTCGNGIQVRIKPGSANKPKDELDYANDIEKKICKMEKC
Test: AVEXIS screen signal:noise (double-corrected)

Binder	binding score
B1	0.507
B2	0.856
B3	0.982
B4	0.734
B5	1.29
B6	0.432
B7	1.06
B8	1.11
B9	0.979
